{"source": "paper PMC11867700", "about": "“TANGO2 is an acyl-CoA binding protein” (The Journal of Cell Biology, 2025)", "proteins": {"B1": {"name": "TANGO2 isoform 1-Flag (TANGO2.Iso1-Flag), purified (natural protein, human, UniProt Q6ICL3-1 1-276, looked up)", "chain": "MCIIFFKFDPRPVSKNAYRLILAANRDEFYSRPSKLADFWGNNNEILSGLDMEEGKEGGTWLGISTRGKLAALTNYLQPQLDWQARGRGELVTHFLTTDVDSLSYLKKVSMEGHLYNGFNLIAADLSTAKGDVICYYGNRGEPDPIVLTPGTYGLSNALLETPWRKLCFGKQLFLEAVERSQALPKDVLIASLLDVLNNEEAQLPDPAIEDQGGEYVQPMLSKYAAVCVRCPGYGTRTNTIILVDADGHVTFTERSMMDKDLSHWETRTYEFTLQS", "notes": "TANGO2 isoform 1, human, UniProt Q6ICL3-1; C-terminal in-frame fusion with the Flag peptide; also called TANGO2.Flag; purified TANGO2"}}, "molecular_target": "the molecule itself", "experiment": "mass photometry; purified TANGO2.Flag; mass distribution; conditions not described"}
{"protein": "B1", "values": [{"measurement": "binding result", "value": "binds"}]}
